We go through three molecules from patent publication US20240141039A1 (AGENUS, published 2024).

The target in assay [1] is T1, wild type full-length cynomolgus monkey CD96 isoform 2 expressed on CHO cells (cynomolgus monkey, UniProt A0A2K5TWV6 22-569).
T1 construct: whole, on cells; also called cynomolgus CD96-CHO cells; cynomolgus CD96-CHO (isoform 2)
T1 sequence: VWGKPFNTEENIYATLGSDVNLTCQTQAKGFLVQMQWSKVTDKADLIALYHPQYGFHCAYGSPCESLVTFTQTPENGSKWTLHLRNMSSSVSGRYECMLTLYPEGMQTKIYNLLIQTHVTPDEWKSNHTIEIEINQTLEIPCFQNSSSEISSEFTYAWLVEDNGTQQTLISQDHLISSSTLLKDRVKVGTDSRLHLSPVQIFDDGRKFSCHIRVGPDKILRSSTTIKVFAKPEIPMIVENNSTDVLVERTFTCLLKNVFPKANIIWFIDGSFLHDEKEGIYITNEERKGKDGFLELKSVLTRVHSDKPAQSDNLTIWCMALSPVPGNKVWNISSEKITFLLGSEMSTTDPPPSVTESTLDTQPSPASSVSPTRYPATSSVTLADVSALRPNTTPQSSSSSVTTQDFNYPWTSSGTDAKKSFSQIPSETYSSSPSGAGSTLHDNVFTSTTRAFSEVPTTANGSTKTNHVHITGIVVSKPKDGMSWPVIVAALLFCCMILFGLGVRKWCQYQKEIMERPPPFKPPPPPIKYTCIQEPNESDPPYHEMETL
Put plainly: flow cytometry on CHO cells expressing cynomolgus CD96 isoform 2, PE anti-human IgG Fc detection. On the technique in general: A flow cytometer gives signals particle by particle.

The target of assay [2] is T1, wild type full-length cynomolgus monkey …. Put plainly: flow cytometry, cynomolgus CD96 (isoform 2) CHO cells, 1 experiment.
The target of assay [3] is T2, full-length ECD of cynomolgus monkey TIGIT (His-tagged) (cynomolgus monkey).
T2 construct: also called His-tagged cynomolgus monkey TIGIT; cyno TIGIT extracellular domain
As to the kind of experiment: SPR Biacore T200, Protein A capture, 1:1 model, experiment #1. As to the method:
(§1) Briefly, surface plasmon resonance experiments were performed using a Biacore T200 instrument, and the association rate (kₐ), dissociation rate (kd), and dissociation constant (KD) were calculated from each experiment using a 1:1 binding model with Biacore T200 Evaluation Software.
(§2) Antibodies were captured using a 30-sec injection at a flow rate of 10 μl/min to reach about 500 resonance units (RUs). […] The sensor chip was regenerated between cycles with two 30-sec injections of 10 mM glycine, pH 1.5. Sensorgrams were evaluated and fit to a simple Langmuir 1:1 interaction model using the global data analysis option of BIAevaluation 3.0 software. Data quality was verified by visually inspecting deviations and curve fitting, and by evaluating the parameters of Rₘₐₓ, Chi2, and Tc.

The target in assay [4] is T3, full-length ECD of human TIGIT (His-tagged) (human).
T3 construct: also called His-tagged human TIGIT; human TIGIT extracellular domain
T3 chain: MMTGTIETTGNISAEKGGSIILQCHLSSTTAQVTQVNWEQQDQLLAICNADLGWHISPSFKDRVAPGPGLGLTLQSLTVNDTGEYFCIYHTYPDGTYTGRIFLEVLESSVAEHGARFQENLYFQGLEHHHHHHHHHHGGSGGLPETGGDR
Described as above. The procedure: as §1, §2

For assay [5], the target named is T2, full-length ECD of cynomolgus monkey …. As to the kind of experiment: SPR Biacore T200, geomean of experiments #1 and #2. As to the method: as §1, §2
A general note: Surface plasmon resonance follows binding to a sensor surface in real time, without labels.

Assay [6] concerns the target T4, wild type full-length cynomolgus monkey TIGIT expressed on CHO cells (cynomolgus monkey, UniProt A0A7N9I9V4 89-312).
T4 construct: whole, on cells; also called cynomolgus TIGIT-CHO cells
As to the kind of experiment: flow cytometry, blocking of CD155-Fc-PE binding to cynomolgus TIGIT CHO cells, geomean of 3 experiments. As to the method:
A 4× concentrated intermediate stock of each multispecific molecule was prepared in a microplate. Antibodies were serially diluted 1-to-4 in FACS buffer. […] Lastly, 25 μL of cynomolgus TIGIT-CHO cells, prepared as described above, were added to each well. After a 30-minute incubation on ice, the cells were washed twice with cold FACS Buffer, and the cells were analyzed by flow cytometry (BD LSR Fortessa Flow Cytometer). The data were analyzed using the FlowJo software by sequentially gating on the FSC-A vs. SSC-A and SSC-H vs. SSC-A. Mean fluorescence intensity (MFI) values for PE were calculated, and the data were plotted by GraphPad Prism software and analyzed as described above.

The target in assay [7] is CD8+ T cells (CD3-stimulated; Day 4). As to the kind of experiment: flow cytometry on activated primary human T cells, gated CD8+, donor 2; PE anti-human IgG detection.
Procedure: A total of 8 dilutions ranging from 50 μg/mL to 0.000005 μg/mL were prepared. After four days, the sample plates were centrifuged for two minutes at 2000 rpm, and supernatants were discarded. Samples were blocked with FcγR Block prepared in FACs buffer at 5 μL per 100 μL test for 10 minutes. Sample plates were then centrifuged for two minutes at 2000 rpm, and the supernatant was discarded. The cells were then re-suspended in 100 μL of anti-TIGIT×CD96 multispecific molecule or a relevant isotype control at the concentrations shown in FIGS. 26A-26F. Sample plates were incubated for 30 minutes at 4° C. Cells were washed by addition of cold sample buffer and centrifuged for two minutes at 2000 rpm, and the supernatant was discarded. This wash was repeated once.
Cells were then resuspended in a cocktail of fluorescently labeled antibodies. A cocktail of fluorescently labeled antibodies sufficient for all samples was prepared in FACs buffer. 100 μL of antibody per well was then added to a round-bottom 96-well plate. […]
Antibody binding was measured by flow cytometry using a BD LSR Fortessa Flow Cytometer. […] 100,000 events were recorded for each sample. Samples were analyzed by sequentially gating on the following populations: FSC-A vs. SSC-A, FSC-H vs. FSC-A, SSC-A vs. LIVE/DEAD, CD4 vs. CD8, and SSC vs. CD25. Mean fluorescence intensity (MFI) was calculated.
Assay [8] has as its target T5, wild type full-length human TIGIT expressed on cells (human, UniProt Q495A1 22-244).
T5 construct: whole, on cells; also called human TIGIT-CHO; human TIGIT CHO cells
T5 sequence (looked up): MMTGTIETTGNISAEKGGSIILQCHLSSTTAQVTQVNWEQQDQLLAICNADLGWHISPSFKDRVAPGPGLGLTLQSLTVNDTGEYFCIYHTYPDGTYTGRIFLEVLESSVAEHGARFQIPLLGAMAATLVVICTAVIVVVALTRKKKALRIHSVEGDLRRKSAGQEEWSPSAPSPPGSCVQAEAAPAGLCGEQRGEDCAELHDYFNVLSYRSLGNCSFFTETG
As to the kind of experiment: flow cytometry on CHO cells expressing human TIGIT, PE anti-human IgG Fc detection. As to the method:
For the antibody binding assay, a frozen aliquot of human TIGIT-CHO cells was thawed at 37° C. and then transferred to a tube containing DPBS supplemented with 0.5% Bovine Serum Albumin and 0.05% Sodium Azide (FACS Buffer). Cells were centrifuged at 300 g for five minutes. The supernatant was discarded, and cells resuspended in FACS buffer were seeded in a 96-well U-bottom tissue culture plate at a density of 2×10⁵ cells per well in 50 μL. In a separate microplate, a 2× concentrated intermediate stock of each antibody was prepared. Antibodies were serially diluted 1-to-4 in FACS buffer. A total of 11 working dilutions ranging from 60 μg/mL to 0.000057 μg/mL were prepared. Fifty microlitres of each dilution were then transferred to the microplate containing human TIGIT-CHO cells. The cells were then incubated for 45 minutes at 4° C. […] After a 30-minute incubation on ice, the cells were washed twice with cold FACS Buffer, and the cells were analyzed by flow cytometry (BD LSR Fortessa Flow Cytometer). The data were analyzed using the FlowJo software by sequentially gating the FSC-A vs. SSC-A, and SSC-H vs. SSC-A. Mean fluorescence intensity (MFI) values for PE were calculated, and the data were plotted by GraphPad Prism software.

T4 sequence (A0A7N9I9V4 entry or part of it): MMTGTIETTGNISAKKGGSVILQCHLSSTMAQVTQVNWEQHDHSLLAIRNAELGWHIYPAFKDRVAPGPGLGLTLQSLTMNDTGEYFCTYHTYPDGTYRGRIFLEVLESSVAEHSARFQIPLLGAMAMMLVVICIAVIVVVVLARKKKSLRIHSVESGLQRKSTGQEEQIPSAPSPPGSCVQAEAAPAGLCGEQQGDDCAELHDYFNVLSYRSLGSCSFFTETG

B1: anti-TIGIT×CD96 multispecific molecule BA123 (bispecific antibody, human IgG1, kappa, lambda)
heavy 1: QVQLVQSGAEVKKPGASVKVSCKASGYTFTSYGISWVRQAPGQGLEWMGWISAYNANTNYAQKLQGRVTMTTDTSTSTAYMELRSLRSDDTAVYYCARSAGVLGGMDVWGRGTLVTVSSASTKGPSVFPLAPSSKSTSGGTAALGCLVKDYFPEPVTVSWNSGALTSGVHTFPAVLQSSGLYSLSSVVTVPSSSLGTQTYICNVNHKPSNTKVDKRVEPKSCDKTHTCPPCPAPELLGGPDVFLFPPKPKDTLMISRTPEVTCVVVDVSHEDPEVKFNWYVDGVEVHNAKTKPREEQYNSTYRVVSVLTVLHQDWLNGKEYKCKVSNKALPAPIEKTISKAKGQPREPQVYTLPPSREEMTKNQVSLSCAVKGFYPSDIAVEWESNGQPENNYKTTPPVLDSDGSFFLVSKLTVDKSRWQQGNVFSCSVMHEALHNHYTQKSLSLSPG
light 1: not shown
heavy 2: EVQLVQSGAEVKKPGSSVKVSCKASGYTFASYGISWVRQAPGQGLEWMGGITPFFNRVDVAEKFQGRVTITADKSTSTAYIELSSLRSEDTAVYYCARDLRRGGVGDAFDIWGRGTLVTVSSASTKGPSVFPLAPSSKSTSGGTAALGCLVKDYFPEPVTVSWNSGALTSGVHTFPAVLQSSGLYSLSSVVTVPSSSLGTQTYICNVNHKPSNTKVDKRVEPKSCDKTHTCPPCPAPELLGGPDVFLFPPKPKDTLMISRTPEVTCVVVDVSHEDPEVKFNWYVDGVEVHNAKTKPREEQYNSTYRVVSVLTVLHQDWLNGKEYKCKVSNKALPLPEEKTISKAKGQPREPQVYTLPPSREEMTKNQVSLWCLVKGFYPSDIAVEWESNGQPENNYKTTPPVLDSDGSFFLYSKLTVDKSRWQQGNVFSCSVMHEALHNHYTQKSLSLSPG
light 2: QSALTQPRSVSGSPGQSVTISCTGTSPDVGSHAYRSWYQQHPGKAPKLMIYEVSYRPSGVSNRFSGSKSGNTASLTISGLQAEDEADYYCSSYPPSSATVFGAGTKLTVLGQPKAAPSVTLFPPSSEELQANKATLVCLISDFYPGAVTVAWKADSSPVKAGVETTTPSKQSNNKYAASSYLSLTPEQWKSHRSYSCQVTHEGSTVEKTVAPTEC
notes: copies: 1 + 1 + 1 + 1
As to B1, the EC50 (read off the curve) (usually the concentration that produces a half-maximal response) in assay [1] was around 1 µg/mL. In assay [2], the EC50 (usually the concentration that produces a half-maximal response) was 1.04 µg/mL.

B2: anti-TIGIT monospecific antibody BA148 (antibody, human IgG1, lambda)
heavy: EVQLVQSGAEVKKPGSSVKVSCKASGYTFASYGISWVRQAPGQGLEWMGGITPFFNRVDVAEKFQGRVTITADKSTSTAYIELSSLRSEDTAVYYCARDLRRGGVGDAFDIWGRGTLVTVSSASTKGPSVFPLAPSSKSTSGGTAALGCLVKDYFPEPVTVSWNSGALTSGVHTFPAVLQSSGLYSLSSVVTVPSSSLGTQTYICNVNHKPSNTKVDKRVEPKSCDKTHTCPPCPAPELLGGPDVFLFPPKPKDTLMISRTPEVTCVVVDVSHEDPEVKFNWYVDGVEVHNAKTKPREEQYNSTYRVVSVLTVLHQDWLNGKEYKCKVSNKALPLPEEKTISKAKGQPREPQVYTLPPSREEMTKNQVSLTCLVKGFYPSDIAVEWESNGQPENNYKTTPPVLDSDGSFFLYSKLTVDKSRWQQGNVFSCSVMHEALHNHYTQKSLSLSPGK
light: QSALTQPRSVSGSPGQSVTISCTGTSPDVGSHAYRSWYQQHPGKAPKLMIYEVSYRPSGVSNRFSGSKSGNTASLTISGLQAEDEADYYCSSYPPSSATVFGAGTKLTVLGQPKAAPSVTLFPPSSEELQANKATLVCLISDFYPGAVTVAWKADSSPVKAGVETTTPSKQSNNKYAASSYLSLTPEQWKSHRSYSCQVTHEGSTVEKTVAPTEC
notes: IgG1; also called anti-TIGIT IgG1 antibody BA148
With B2, in assay [3], the dissociation constant Kd (as a rule, the free concentration of one partner at which half of the binding sites on the other are occupied at equilibrium, for simple one-to-one binding) is 3.8 nM; the koff (as a rule, a measure of how fast the partners let go of each other) was 0.00127 s⁻¹; the kon (usually the rate constant with which the complex forms) was found to be 334000 M⁻¹ s⁻¹. In assay [4], the Kd is 0.535 nM, the koff amounted to 0.000413 s⁻¹ and the kon is 773000 M⁻¹ s⁻¹. In addition, the equilibrium dissociation constant (Kd) in assay [5] came to 3.9 nM. Moreover, the half-inhibitory concentration (IC50) (usually the point on the concentration scale where inhibition reaches its midpoint) in assay [6] stood at 0.243 µg/mL.

B3: anti-TIGIT×CD96 multispecific molecule BA127 (bispecific antibody, human IgG1, kappa, lambda)
heavy 1: QVQLVQSGAEVKKPGASVKVSCKASGYTFTTYALHWVRQAPGQRLEWMGWINTGSGDTKYSQKFQGRVTITRDTSASTAYMELSSLRSEDTAVYYCARSLGVYYGMDVWGQGTLVTVSSASTKGPSVFPLAPSSKSTSGGTAALGCLVKDYFPEPVTVSWNSGALTSGVHTFPAVLQSSGLYSLSSVVTVPSSSLGTQTYICNVNHKPSNTKVDKRVEPKSCDKTHTCPPCPAPELLGGPDVFLFPPKPKDTLMISRTPEVTCVVVDVSHEDPEVKFNWYVDGVEVHNAKTKPREEQYNSTYRVVSVLTVLHQDWLNGKEYKCKVSNKALPAPIEKTISKAKGQPREPQVYTLPPSREEMTKNQVSLSCAVKGFYPSDIAVEWESNGQPENNYKTTPPVLDSDGSFFLVSKLTVDKSRWQQGNVFSCSVMHEALHNHYTQKSLSLSPG
light 1: not shown
heavy 2: EVQLVQSGAEVKKPGSSVKVSCKASGYTFASYGISWVRQAPGQGLEWMGGITPFFNRVDVAEKFQGRVTITADKSTSTAYIELSSLRSEDTAVYYCARDLRRGGVGDAFDIWGRGTLVTVSSASTKGPSVFPLAPSSKSTSGGTAALGCLVKDYFPEPVTVSWNSGALTSGVHTFPAVLQSSGLYSLSSVVTVPSSSLGTQTYICNVNHKPSNTKVDKRVEPKSCDKTHTCPPCPAPELLGGPDVFLFPPKPKDTLMISRTPEVTCVVVDVSHEDPEVKFNWYVDGVEVHNAKTKPREEQYNSTYRVVSVLTVLHQDWLNGKEYKCKVSNKALPLPEEKTISKAKGQPREPQVYTLPPSREEMTKNQVSLWCLVKGFYPSDIAVEWESNGQPENNYKTTPPVLDSDGSFFLYSKLTVDKSRWQQGNVFSCSVMHEALHNHYTQKSLSLSPG
light 2: QSALTQPRSVSGSPGQSVTISCTGTSPDVGSHAYRSWYQQHPGKAPKLMIYEVSYRPSGVSNRFSGSKSGNTASLTISGLQAEDEADYYCSSYPPSSATVFGAGTKLTVLGQPKAAPSVTLFPPSSEELQANKATLVCLISDFYPGAVTVAWKADSSPVKAGVETTTPSKQSNNKYAASSYLSLTPEQWKSHRSYSCQVTHEGSTVEKTVAPTEC
notes: Anti-CD96 arm = BA139, anti-TIGIT arm = BA150; copies: 1 + 1 + 1 + 1
B3: the figures for the “EC50 (read off the curve)” value in assay [7] and in assay [8] were around 0.3 µg/mL and around 0.03 µg/mL, respectively.
